The source of these data is the DeepSol protein solubility set.

A short description of this data set: soluble on expression in E. coli; label from the status in PepcDB or PDB records.
Turning to “QQFFFENDALGQSSTDFATNFLNLWDNNREQLLNLYSPQSQFSVSVDSTIPPSTVTDSDQTPAFGYYMSSSRNISKVSSEKSIQQRLSIGQESINSIFKTLPKTKHHLQEQPNEYSMETISYPQINGFVITLHGFFEETGKPELESNKKTGKNNYQKNRRYNHGYNSTSNNKLSKKSFDRTWVIVPMNNSVIIASDLLTVRAYSTGAWKTASIAIAQAAGS”, the “soluble on expression in E. coli” value is “soluble”.

With “MGSDKIHHHHHHMNNNIPLRALQIFEACARLESCSLAANELCITQSAVSQQIKQLEDYFLEKLFYRQGGKINLTEAGIELRERLAPVFYDLNSVCSSLVQNMAGEVRVHSYTSLAARWLVPKMEQLRQMYPELNINVGMFQNDIEMSDMIADIFIVTRECQDGYTIIPLVTEKLVAFCSPDYLAQSQGISLATLDQHCLLYSKHKDYGVDWDTWFRNNDIAISPNQKKIFFNHNMLAVQAAIYGQGIVLGLEQTLKVELDSGNLVKLDLPTCLSGLTYYIAYKTSKKRDARIMRIVDWIIDNYPGDHPGDRTLAR”, the “soluble on expression in E. coli” value is “not soluble”.

With “MTDMDPSNMTGGPMNGHSAEKSSEEKKSPRSSRGVGEDLKNAGKDAMNTMENAGKNAWDKAGELGKSGINTVQSAGSAVKNGAKDLAGKVDKAL”, the “soluble on expression in E. coli” value is given as “soluble”.

As for “MSQTTTNPHVAVLAFPFSTHAAPLLAVVRRLAAAAPHAVFSFFSTSQSNASIFHDSMHTMQCNIKSYDISDGVPEGYVFAGRPQEDIELFTRAAPESFRQGMVMAVAETGRPVSCLVADAFIWFAADMAAEMGVAWLPFWTAGPNSLSTHVYIDEIREKIGVSGIQGREDELLNFIPGMSKVRFRDLQEGIVFGNLNSLFSRMLHRMGQVLPKATAVFINSFEELDDSLTNDLKSKLKTYLNIGPFNLITPPPVVPNTTGCLQWLKERKPTSVVYISFGTVTTPPPAEVVALSEALEASRVPFIWSLRDKARVHLPEGFLEKTRGYGMVVPWAPQAEVLAHEAVGAFVTHCGWNSLWESVAGGVPLICRPFFGDQRLNGRMVEDVLEIGVRIEGGVFTKSGLMSCFDQILSQEKGKKLRENLRALRETADRAVGPKGSSTENFITLVDLVSKPKDV”, the “soluble on expression in E. coli” value is listed as “soluble”.

In the case of “MSLEGEQHSRERDQQAIQYHYDVSNDFYKLWLDERMVYSCAYFPGGQETLDEAQTAKLDYICRKLQLRPGERLLDIGCGWGGLSLYAAQHYGVQVLGVTLSQAQLQEGQARVRVAGLEGQVQLELRDYRDVLSRGPAQFDKIASVGMAEHVGRRNMPEYFRSAYAALKPGGLMLNHAIGDGIGQARVPMWLQSGNFARKYVFPDGELLPVWETLKYASEQLFEVRDVENLREHYALTIGHWAARLEAHRPEALALLGEERLRLWRLYLGATSYYFRKGHLTLFQSLLAKPDAERAVPLPLSRAGLYREGHHHHHH”, the “soluble on expression in E. coli” value is recorded as “soluble”.

“MGSDKIHHHHHHMFIKNAWYVACRPEEIQDKPLGRTICGEKIVFYRGKENQVAAVEDFCPHRGAPLSLGYVEDGNLVCGYHGLVMGCDGKTVSMPAQRVNGFPCNKAYAVVEKFGFIWVWPGEKALADEAKLPTLEWADHPEWSYGGGLFHIQCDYRLMIDNLMDLTHETYVHSSSIGQKEIDEALPVTKVEGDHVITERYMENVIAPPFWQMALRGNHLADDVPVDRWQRCHFFAPSNVHIEVGVAHAGHGGYHAPKDKKVSSIVVDFITPETETSHWYFWGMARNFQPDNAELTDQIREGQGKIFTEDLEMLEQQQQNILNNPHRKLLMLNIDAGGVQSRKVIDRLLAEENKTPPETSTQKFPNIRII”: the “soluble on expression in E. coli” value is listed as “not soluble”.

Turning to “MELDVFVGNTTVLDEDIYQLWLDGHSVSDVVRQRMDAGVLLECEASPDVLQSDTIDQFRTFQMCERLLQSPSKVANQLLFQIPSDQQAMLIERYYEFDSVFAREVLGKKLSKGTKKDLDDVSAKTGIALKSCRRQFDNFKRVFKVVEELKGPLVENIQRHFLLSDDLARDYATIVFFANSRFETGKRKLQYLSFQDFAFCAGQLISYWTVGAVDNMIEDMDVDLEKDFLHDLKDLKVLVNDKDLLDQHKSLVCGQLRGKIKVFNEMEASFKNLSRALVNIASKLTHAKDVRDLFIDLVEKFIEPCRSDKWTSGDLRLFLTHYSTSVHTLEAFRHQVIWDRYMGVIKSCILKMYHD”, the “soluble on expression in E. coli” value is “soluble”.

For “MDHDTEVIVKDFNSILEELTFNSRPIITTLTKLAEENISCAQYFVDAIESRIEKCMPKQKLYAFYALDSICKNVGSPYTIYFSRNLFNLYKRTYLLVDNTTRTKLINMFKLWLNPNDTGLPLFEGSALEKIEQFLIKASAAALE”, the “soluble on expression in E. coli” value is “soluble”.

As for “MFRILTINPGSTSTKLSIFEDERMVKMQNFSHSPDELGRFQKILDQLEFREKIARQFVEETGYSLSSFSAFVSRGGLLDPIPGGVYLVDGLMIKTLKSGKNGEHASNLGAIIAHRFSSETGVPAYVVDPVVVDEMEDVARVSGHPNYQRKSIFHALNQKTVAKEVARMMNKRYEEMNLVVAHMGGGISIAAHRKGRVIDVNNALDGDGPFTPERSGTLPLTQLVDLCFSGKFTYEEMKKRIVGNGGLVAYLGTSDAREVVRRIKQGDEWAKRVYRAMAYQIAKWIGKMAAVLKGEVDFIVLTGGLAHEKEFLVPWITKRVSFIAPVLVFPGSNEEKALALSALRVLRGEEKPKNYSEESRRWRERYDSYLDGILRHHHHHH”, the “soluble on expression in E. coli” value was “soluble”.

For “MDGFQLGNNSPKEITVFCDESRPEALRAASITQRYLCIGSIWVDRERVREVNEEIRALQIKYSKMGEVKWGKVSPSSIQFNCELIDLFFDERFNLQFRAIVVDNQKVDLSYHNNDQELGFYKFYYQMLKHKLINGCSYRIYCDLKTNKMRGRASTLEHYLQTYCLGSVEMVQLLPSNDLPLMQLTDLLLGAVSTKFNFRIPKSPAKNEVISTIERHIGHQIQPTRKNEQKFNVFCIEPGMGR”, the “soluble on expression in E. coli” value was “not soluble”.

Consider “MNLASVLLLLAACHLSVSVNGQEHKEAIELSMANHDHVLGSAQVVFVAFCADWCPFSRRLKPIFEESARVFHQENPQASAVWAIVDSQRQADIGDKYFVNKYPTMKVFVNGELITKEYRSTRSVEALTNFVKFQLSTAINEFSSQDQLNQEMDKSKRNVVAWLKKDGPEFANLKKVASILREDCSFWVPTDHFGTQTNDNKLSFFDPDSNEEAKFTGNFNDYDFVKQWVTDKCIPLVREVTFENVEELTEEGMPFLIYFRDPDNKTTDKVFGEAVARELYDQRSAINPLLADGHKFAHPLKHLGKTKEDLPVLAIDSFQHMYLFPDMTQMNIPGKLREFVMDLHSGKLHKDFHENLDQRMIELAKAKAARGITDDHEAQAPSTRPIDTTPPPSVFKELKPSDKRYSILQKSEL”, for which the “soluble on expression in E. coli” value is recorded as “not soluble”.

“MTKPFAPASARNRDPILSVLQRYFADRQHVLEIGAGTGQHAVHFAAAMPWLRWQASDHPDHLPGMRQWLDEAALPNTPPPVALQAVLTPAPGLAPAPPLPPVQAGTPAGYDAIYSANTLHIMGWPQVQALFAGLPAVMAPQAVLVIYGPFNRDGEFTSDSNRDFDAMLRARDAASGIRDAAEVDALAAQVGLQLVDDVDMPANNRCRVWQRALEHHHHHH”: the “soluble on expression in E. coli” value was “soluble”.

Consider “MGSDKIHHHHHHMSAEDYKNLPVTVEKPIPVVYDLGNLAAFDSNVLDKNDLDSSNARREEKIKSLTRDNVQLLINQLLSLPMKTTTESVGGTGGQSSVMTLLQLPDPTTDLPREKPLPKAKAMTKWEKFAAKKGIKPKERAGKMIYDEASGEWVPKWGYKGANKKLDDQWLVEVDDKVKGTDNELIDPRTLNRAERKRLVKKNEKQQRRNMKNAL”, for which the “soluble on expression in E. coli” value is “not soluble”.

For the sequence “KQWVWSAESPIETNILKLLPKNQQNPVAEQAFESVSASMSDKVIFVITAPDKNALFAAAAEFDKGLRQSNHFRDVVGKISPQEQQAWASYYFKHRFQLLTPEQRERLSQNPEQQVQHVIQSLYNPFSGVTGQELQSDPFLLFRDYLSQVTQQSSSFRLDNGYLSVEKDGAQYLLITAELKESPYSLTGQLAVPDIQALEQSVAQKYGAEVAHTGVLFYADFGTQSAKSE”, the “soluble on expression in E. coli” value is “soluble”.

Turning to “MGSDKIHHHHHHMLQTDNLIPDFINKQITQAVMSLRSGNVVAFPTETVYGLGADISQPQAIQKIFEIKGRPSSHPLIVHFANLSELEFWAENIPATAWILAQHFWPGPLTLILTKSNHIPLSVTGGQETVGLRIPRHPIALKLLEQLGSCKALAAPSANRFGFVSPTIADHVKNAFNDKIEVILDGGPCEVGLESTIVSCIDKDVTILRPGGISVLSIENLLQQKVSVKSQNKIRTPGSLSSHYATATPLEICQSSESLFSRSFDLLQQGIRTAVIIRSIHLIPMLNSDDKFHYILMPNDPVAFGKDLYATLRKLDDANFERILVEAPPDDLEWLAVADRLSRASYSFTSK”, the “soluble on expression in E. coli” value is reported as “not soluble”.

As to “MGSDKIHHHHHHKDEIKHLVSEWQGKEIRFPKDMVFARFATDTVDFTLPKSPHKVLVFVDSIGCTSCKLQLHRWKELIQYTDSITQGTVPFLFFFQSDDKKEIRYLLKKDNFDKPICMDQSDRLNELNHFPADGRFQTFLLDKDNKVVVIGNPIHNPNIRELYLKEITGKQPASQIQTTVKVEEASIQLGTIQMGESKEAVFRLTNTGNNPLVILDAATTCGCARPSFDKHPAKPGEILQVRVIMTPKDKGVFDETISVKCNTNQLIKLNIRGMAQ”, the “soluble on expression in E. coli” value was “not soluble”.

Take “MQAKIKNKRVLVKFSGEALAGDNQFGIDIHVLDHIAKEIKSLVENDIEVGIVIGGGNIIRGVSAAQGGIIRRTSGDYMGMLATVINAVAMQEALEHIGLDTRVQSAIEIKEICESYIYRKAIRHLEKGRVVIFGAGTGNPFFTTDTAATLRAIEIGSDLIIKATKVDGIYDKDPNKFKDAKKLDTLSYNDALIGDIEVMDDTAISLAKDNKLPIVVCNMFKKGNLLQVIKHQQGVFSMVKLEHHHHHH”: the “soluble on expression in E. coli” value is recorded as “not soluble”.

“GPGSMEGSGSYRLKRGRDELSTPPASGNFPASDQRGTQNLLRCPWCPNGHLMRPAAKSPTNNSKEEGTHLCTNRSSCPCGAVIDQDRTMSFSCIDGSDLIRNFYNALDDHLETCQIVSQTPSQRDWAPWSIVAERSILFADPSNRKQRHSVDCSPPSLSPDPKGPVFYFLHCDNCGEKEFVC”: the “soluble on expression in E. coli” value is recorded as “not soluble”.

As to “MFSYHELITIESVARLGSFSQAADELHKVPSAISYTIKSVEDRLTVVLFTRLHRRVELTAAGTYFVDQARKLLKDMEEIRFNTQRVANGWQQSVSVALDNVVRENSVNQLVRDFYATFPDIELQLTMEVFNGVWDALMTGRADIGIGATATIPIGGDFSYRPMGELAWDFIVSINHPLASFEHDIPNEELVKYPAICLEDTSQILPKRSTWLLDNQRRLIVPNWHSAEQCFIDGLGVGVIPNHRAKRLLETGQVISKKIEHHIAPSPCCLAWNNNNQSVAIQWLLDYLGDSDKLNSEWLKEF”, the “soluble on expression in E. coli” value was “not soluble”.

For the sequence “MSLFSISNLSFIGFLKRIVFSSDSLPGKWEHRKFRFMYILRCSINPVVSIRYYYELRSLPCIEDILAIHPTLPARIHRPYLHKGGRAWTRGQYILEHYRFVQNLPEKYSKFLFPQKSVSLVQFIGKDGENFDIQCSPSGFDREGELMLSLFYNKTVIARLTYSVILTQNGHIAFIGGLQGAPKNTGPDVIRCATRACYGLFPKRIIFEAFCALMKACNVSECLAVSEHSHVFRQLKYWYQKRKTFVAVYSDFWDSVPGKTCGDWYKLPTQVIRKPLTDIPIKKRSDYRKQYALLDYIHETTIRSLDAYPVHSKHQNSNEGHHHHHH”, the “soluble on expression in E. coli” value is recorded as “not soluble”.

For “MTMKCFLVILPLLVLYWIVSNRKRSGPLTNPHYKECLRKEWYTSPNVSSTEDFGSSYQISFADVQKTFKWLYLPEIDDPEIILTVMTRVDALARRNVLRKTWMTQRNRIKSIFVIGLGGDVDQKTKELVMSEAALYGDMVVTNIEDSFSKVAFKMLSMLLYGFSKVPSAKFIGKVDDDVLFYPNVLLSYMDNNTDTIHPQGSRMYGHITETRFITAGIPTGAECCEKFDSDSKCANYVTFLGGSFLMFTRQAVEGVLMASKHRKFHRIDDTMVTGYLADDVGAQRVNMTMMFMGYEPTKEPILFSSHIPLKDHEYLEQYRIQMADFKEQRLFTKYIGE”, the “soluble on expression in E. coli” value was “not soluble”.
